Measured values reported in the RNAGym collection of RNA variant scans (doi:10.1073/pnas.2313332121).

B1: TPR t1 (parent)
chain: GACCAAUCUGCCCUCAGAGCUCGAGAACAUCUUCGGAUGCAGAGGAGGCAGGCUUCGGUGGCGCGAUAGCGCCAACGUCCUCAACCUCCAAUGCAUCCCACCACAUGAUGAUGCCUGAAGAGCCUUGGUUUUUUG

Variants of: B1
Assay: polymerase ribozyme fitness, log enrichment relative to wild type (log ratio); higher = more active; in vitro selection for triplet polymerase activity
Procedure, shortened: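 Libraries of mutants in each subunit of a heterodimeric triplet polymerase ribozyme were generated by PCR and transcribed. In triplicate, each went through one in vitro selection round: annealing with biotinylated primer, partner subunit and triplets; frozen incubation at −7 °C; gel excision of extended constructs; streptavidin-bead capture; RT-PCR. Fitness, taken from Illumina sequencing of input and output libraries, is the logarithm of a genotype's enrichment over wild-type enrichment, averaged across replicates with inverse-variance weights. The logarithm is base 2, and genotypes needed ≥10 input reads and ≥1 read per output to be kept.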

| Variant | polymerase ribozyme fitness (log ratio) |
| --- | --- |
| C53A U133G | -0.187 |
| G52U C114U U125A | -4.04 |
| C53U C102U C114A | -4.76 |
| C53A C98A C102G U112C | -7.27 |
| U55C G58A G60U U78A G110A | -1.19 |
| C53G C64U G120A | 1.12 |
| U54A C89G | -1.31 |
| U54G C62G U81A C98U | -4.8 |
| U54C C98U A121U | 1.37 |
| C53G U87G G127U U133G | -0.973 |
| U55G C73G | 1 |
| U54G U112A G117C | -4.03 |
| U55C C73A C76G A121U | 0.355 |
| C53U G60C G120A | 0.0788 |
| U54A U81A | -0.628 |
| U54G C86A U129G | -0.985 |
| C53A G69U U78G C82A | -0.279 |
| U54G G71A G120C | -6.71 |
| C53G G63C A91C A118C | -4.54 |
| C53G C97A G113A | -4.75 |
| C53G G57U | 0.0545 |
| U55G G61A C73U U81A C114A A119U | -3.58 |
| U55G C70G | -2.34 |
| C53A G60A U92G | -2.9 |

| Variant | polymerase ribozyme fitness (log ratio) |
| --- | --- |
| U54A C70G C86U | -3.2 |
| C53G G110U | -1.58 |
| C53A C56G C62U C89A G120C U134G | -0.681 |
| C53U U109G | -4.32 |
| G52U C56U | -2.1 |
| C53U G60U C80U G93C C97U C101U U133A | -3.62 |
| C53A C88U C101U C123U | 0.64 |
| C53U G63A C80A A105C G113U | -6.53 |
| U55C G69U A90G U112C A119U | 0.0646 |
| C53A G61A U78G C79A U81G C85A | -4.32 |
| U54G G71U C79A | -5.67 |
| U54G U132C | -0.456 |
| U55C A91U C94A | -2.3 |
| U54G G60A U92A G107C G117A | -6.96 |
| C53U G60A C73A U106G C123G U126A | -2.6 |
| U54G C62U U81A | -1.77 |
| U55C C85A G113C | -3.66 |
| C53A U54A C80A C114A C124G U125A | -6.7 |
| C53U C70U | -0.962 |
| U54A A66G C70G C124U U129G | -6.53 |
| U54G C85G U133A | -1.09 |
| C53U A91U | -2.05 |
| C53G C62U C72A C124U | 0.806 |
| C53U A105C G120C G122A U129A | -5.42 |

| Variant | polymerase ribozyme fitness (log ratio) |
| --- | --- |
| U54A C124A G128U | -0.136 |
| C53G C72U C104A | -1.89 |
| C53U A90U C101A | -2.09 |
| C53U A75G A84U | -0.747 |
| C53G C94A C115G G128C | -4.56 |
| U54G C56U | -4.05 |
| C56A C70U U92G | -4.08 |
| U55A U133A | -0.185 |
| C56A C72U C82U C85U | -1.52 |
| U54A G61A C124A G128U | -0.356 |
| U54A G113A | -1.58 |
| C53U C80A U131A | -5.6 |
| C53A C56A A84G U106C G113A | -2.51 |
| U55A G61U | -0.0687 |
| U54C C79G U125C | -4.66 |
| C53U C86G C115U | -1.83 |
| C53G C72G G117C | -4.69 |
| C53A U55A G71C C88U C89U | -1.28 |
| G52U C80G | -4.76 |
| C53G U59G C94G | -0.648 |
| C53A U78C G113U | -3.16 |
| G52U G58C G77A U87C U96G | -1.61 |
| C53G A74G C115U | -1.15 |
| U55G U78A | -0.34 |

| Variant | polymerase ribozyme fitness (log ratio) |
| --- | --- |
| C53U C101G | -1.42 |
| U55G C56A A83G | -1.72 |
| C53U G93A A105C G117U | -6.56 |
| C53U G57U A121C | 1.4 |
| G52U C73A | -0.528 |
| U55C G57U A66C C123G U132A | 0.759 |
| U54A G60C | -0.566 |
| U55G C88G | -0.483 |
| C53A A103U | -4.67 |
| U54A U55A G61A A74G | -1.53 |
| C53G G135U | -1.51 |
| U55C U106G | -1.88 |
| U54C G57C U112C | 1.77 |
| C53A G110U | -1.02 |
| U55C G71A A90G G113U | -2.42 |
| C53A U87C | 0.506 |
| C53G G60U G65U C104U | -7.04 |
| U54A U92G | -2.06 |
| U55A G63A U78A | -0.969 |
| C53G U106A | -0.474 |
| U55A C114U | -2.35 |
| C53G C73U | -0.493 |
| C53U C62U A111U A118U | -3.63 |
| U55G C73G C123U | 0.666 |

| Variant | polymerase ribozyme fitness (log ratio) |
| --- | --- |
| C53U G71C C82G | -0.812 |
| C53A G60C A103C U116C G120C | -7.17 |
| C53A G60A C72U A100U G120C C123G | -0.938 |
| C53U C123U | 1.1 |
| U54G C82A | -0.235 |
| C53U C114A | -1.2 |
| U55A G77A A111U C114U | -5.73 |
| C53U U78G C79A | -1.4 |
| U54A G60C G113C | -2.11 |
| G52U G61C C124G U131G | -1.09 |
| C53G G58A C115A | -0.718 |
| U54C C82U U106A U109A G135U | -4.59 |
| U55C G61U A90G U112C A119U | 0.196 |
| U54A G57U U78A A95U G120U | -0.728 |
| G52U C62A | -2.89 |
| C53A C79A G128A | -3.36 |
| C53A A68U | -6.8 |
| C53U C62G | -1.49 |
| C53G G61C A66C | -2.24 |
| U54C G71C A91U U116C | -5.63 |
| U55G G69C A119U G127C | -1.89 |
| C53U G61A C82A C86G U133A | -1.32 |
| C53G C104U C114U G120U C123G C124A | -0.873 |
| U54A C64U | -0.112 |

| Variant | polymerase ribozyme fitness (log ratio) |
| --- | --- |
| C53G G63A | -2.58 |
| G52U U59C | -0.547 |
| U55C G61A C104A | -1.51 |
| U54C C94G C99U | -4.42 |
| C53U C89U | -0.632 |
| U54G C62A U78C C123U U126A | -6.39 |
| G52U G60A A105C U106G A118G | -3.93 |
| C53A G60A G69C | -3.47 |
| G52U G69C | -1.54 |
| C53A C62A G77C | -0.326 |
| U54A C115U | -1.11 |
| U55G U130G | -0.58 |
| C53G G63A A95G G110A U125C | -4.78 |
| C53U U112G | -0.00138 |
| C53A C72U C86G C115U | -1.64 |
| C53G C56A G117C | -4.49 |
| U54C C79A C98U C101A | -5.66 |
| U55G C72G A100C A111U | -4.23 |
| C53G C70A G117A | -3.42 |
| C53A U116G | -1.78 |
| C53A G60A A121U | 1.33 |
| C53G G60A C104A U125A U131A | -3.15 |
| C53G C89U C115U | -2.67 |
| C53U U92G | -2.82 |

| Variant | polymerase ribozyme fitness (log ratio) |
| --- | --- |
| U54C G61U G71U C82U A83U C114U | -5.85 |
| C53U C124G | 1.61 |
| C53U C124U | 1.92 |
| U55A C101G | -1.85 |
| C53A A90U G117C | -4.59 |
| G52U G61A C94U | -0.267 |
| U55A C62U C72U G120A | -0.106 |
| U54A U96C | 0.104 |
| C53G G57A A66G C70A G113U | -7.08 |
| G52U G61C G122A U125G | -1.37 |
| C53A A83G A105C | -3.47 |
| C53A C86A C124A | 1.52 |
| C53U U59A C89A U130G | -3.42 |
| C53A G63A C124U U129C U134G | 1.57 |
| U54C C56A C85G G117A | -4.42 |
| C53U C86G C89G C97U C124U | -1.92 |
| C53U G71C | -0.133 |
| C53U G71U | -0.192 |
| U55C C62G G128U | -4.02 |
| C56A C73A C94U G113A | -2.48 |
| U54C G60U U133G | -0.398 |
| U55A C73U A83G | -1.24 |
| C56A A118G | -0.557 |
